Source: US20070048315A1
“And” between values parts separate entries of the source, which are not always exact repeats. Identical values can stand only once.

Legend:
[1] = molecular target: "Bac-wt" human IL-23 (identical to elastikine human IL-23 in sequence, expressed in SF9 cells) (human) (UniProt P29460); assay: BIAcore SPR, mAb amine-coupled on CM5 chip, IL-23 in solution, 25 C
[2] = molecular target: "N222Q" human IL-23 (elastikine sequence with Asn222 to Gln in the p40 subunit, expressed in SF9 cells) (human) (UniProt P29460); assay: as above

Kd [1] [nM]	Kd [2]	Binder
10	0.3 nM and 1 nM	humanized anti-human IL-23p19 antibody hum7G10 (antibody, human IgG1, kappa, V domains shown) VH: QVQLVQSGAEVKKPGASVKVSCKASGYTFTSNVMHWVRQAPGQGLEWMGYINPYNDGTKYNEKFKGRVTMTTDTSTSTAYMELRSLRSDDTAVYYCARNWDVAYWGQGTLVTVSS VL: DIQMTQSPSSLSASVGDRVTITCRASQSISDYLHWYQQKPGKAPKLLIYYASQSISGVPSRFSGSGSGTDFTLTISSLQPEDFATYYCQNGHSFPFTFGQGTKVEIKR
5.1	0.5 nM	humanized anti-human IL-23p19 antibody hum6H12 (antibody, human IgG1, kappa, V domains shown) VH: QVQLVQSGAEVKKPGASVKVSCKASGYTFNRYLIHWVRQAPGQGLEWMGYINPNNAGTNYNEKFKGRVTMTTDTSTSTAYMELRSLRSDDTAVYYCARNWDQAYWGQGTLVTVSS VL: DIQMTQSPSSLSASVGDRVTITCRASQSISDYLHWYQQKPGKAPKLLIYYTSQSISGVPSRFSGSGSGTDFTLTISSLQPEDFATYYCQNGHSFPFTFGQGTKVEIKR
